Test results from patent US20180140578A1 (University of Texas, published 2018).
Residue numbers refer to the chain shown, from its start. Numbers in names are those of the source.

Tests used:
DCAF15-3xFLAG [1] = molecular target: T1, DCAF15-3xFLAG (human, UniProt Q66K64 1-600); assay: pull-down of 100 nM RBM39Δ150 P272S by DCAF15-3xFLAG on anti-FLAG beads with rising indisulam, western blot (FIG. 4C)
T1 construct: also called DDB1/DCAF15-3xFLAG; not shown: C-terminal 3xFLAG tag

DCAF15-3xFLAG [2] = molecular target: T1, DCAF15-3xFLAG; assay: pull-down by DCAF15-3xFLAG on anti-FLAG beads, western blot (FIG. 4C)
CUL4A = molecular target: T2, CUL4A (human, UniProt Q13619 1-759, limits assumed); assay: anti-FLAG co-immunoprecipitation from HCT-116 cells, western blot (FIG. 3E)
T2 construct: also called Cullin 4A

CUL4B = molecular target: T3, CUL4B (human, UniProt Q13620 1-913, limits assumed); assay: as above
T3 construct: also called Cullin 4B

DDB1 = molecular target: T4, DDB1 (human, UniProt Q16531 2-1140); assay: anti-FLAG immunopurification from HCT-116 lysate supplemented with indisulam, western blot (FIG. 4A)
T4 construct: also called Q16531_DDB1_HUMAN
T4 sequence (Q16531 2-1140 limits assumed): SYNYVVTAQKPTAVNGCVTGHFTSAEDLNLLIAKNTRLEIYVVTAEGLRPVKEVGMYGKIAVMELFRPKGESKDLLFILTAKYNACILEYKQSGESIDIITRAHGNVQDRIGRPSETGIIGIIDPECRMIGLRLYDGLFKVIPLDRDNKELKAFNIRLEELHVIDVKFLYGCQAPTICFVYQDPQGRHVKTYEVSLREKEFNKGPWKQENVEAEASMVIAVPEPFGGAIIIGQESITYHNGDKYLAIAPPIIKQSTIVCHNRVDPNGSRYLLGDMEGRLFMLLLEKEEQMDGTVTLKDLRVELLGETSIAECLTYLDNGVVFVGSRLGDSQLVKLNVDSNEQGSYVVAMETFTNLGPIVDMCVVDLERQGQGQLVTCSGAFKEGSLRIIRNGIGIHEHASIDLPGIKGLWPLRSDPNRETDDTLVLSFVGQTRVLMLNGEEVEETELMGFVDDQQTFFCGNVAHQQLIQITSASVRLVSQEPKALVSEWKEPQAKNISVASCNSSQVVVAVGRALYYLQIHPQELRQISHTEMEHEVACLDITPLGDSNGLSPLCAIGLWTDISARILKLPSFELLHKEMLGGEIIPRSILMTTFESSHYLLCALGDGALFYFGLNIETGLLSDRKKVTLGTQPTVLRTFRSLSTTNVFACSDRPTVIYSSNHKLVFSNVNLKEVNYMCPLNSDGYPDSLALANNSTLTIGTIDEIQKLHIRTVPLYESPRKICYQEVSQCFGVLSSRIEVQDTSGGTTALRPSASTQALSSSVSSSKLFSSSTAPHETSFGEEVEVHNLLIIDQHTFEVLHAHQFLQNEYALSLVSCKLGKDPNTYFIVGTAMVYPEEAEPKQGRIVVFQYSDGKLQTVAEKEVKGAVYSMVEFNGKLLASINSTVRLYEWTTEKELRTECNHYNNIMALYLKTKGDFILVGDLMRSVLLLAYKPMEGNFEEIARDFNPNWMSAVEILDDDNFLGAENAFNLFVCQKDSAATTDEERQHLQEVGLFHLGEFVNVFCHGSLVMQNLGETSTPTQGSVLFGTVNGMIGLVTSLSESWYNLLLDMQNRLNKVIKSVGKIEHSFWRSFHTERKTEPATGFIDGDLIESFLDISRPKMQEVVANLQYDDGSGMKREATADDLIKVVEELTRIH

T1 sequence (Q66K64 whole entry): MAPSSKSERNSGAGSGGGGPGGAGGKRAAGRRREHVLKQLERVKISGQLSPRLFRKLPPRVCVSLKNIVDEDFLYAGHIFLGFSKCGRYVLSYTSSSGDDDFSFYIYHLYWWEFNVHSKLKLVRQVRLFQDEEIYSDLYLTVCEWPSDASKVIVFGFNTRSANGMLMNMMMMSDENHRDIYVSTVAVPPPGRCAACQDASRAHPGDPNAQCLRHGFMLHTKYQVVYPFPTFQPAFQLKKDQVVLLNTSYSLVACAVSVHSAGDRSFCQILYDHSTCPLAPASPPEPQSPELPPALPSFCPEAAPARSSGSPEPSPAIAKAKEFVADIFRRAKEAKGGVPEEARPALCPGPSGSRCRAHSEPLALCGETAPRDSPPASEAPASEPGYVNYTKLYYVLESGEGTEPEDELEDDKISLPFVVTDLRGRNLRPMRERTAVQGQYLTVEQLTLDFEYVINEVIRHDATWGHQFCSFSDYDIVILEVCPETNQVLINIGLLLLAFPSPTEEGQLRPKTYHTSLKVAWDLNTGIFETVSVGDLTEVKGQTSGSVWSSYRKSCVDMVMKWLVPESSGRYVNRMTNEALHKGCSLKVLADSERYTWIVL
T2 sequence (Q13619 whole entry): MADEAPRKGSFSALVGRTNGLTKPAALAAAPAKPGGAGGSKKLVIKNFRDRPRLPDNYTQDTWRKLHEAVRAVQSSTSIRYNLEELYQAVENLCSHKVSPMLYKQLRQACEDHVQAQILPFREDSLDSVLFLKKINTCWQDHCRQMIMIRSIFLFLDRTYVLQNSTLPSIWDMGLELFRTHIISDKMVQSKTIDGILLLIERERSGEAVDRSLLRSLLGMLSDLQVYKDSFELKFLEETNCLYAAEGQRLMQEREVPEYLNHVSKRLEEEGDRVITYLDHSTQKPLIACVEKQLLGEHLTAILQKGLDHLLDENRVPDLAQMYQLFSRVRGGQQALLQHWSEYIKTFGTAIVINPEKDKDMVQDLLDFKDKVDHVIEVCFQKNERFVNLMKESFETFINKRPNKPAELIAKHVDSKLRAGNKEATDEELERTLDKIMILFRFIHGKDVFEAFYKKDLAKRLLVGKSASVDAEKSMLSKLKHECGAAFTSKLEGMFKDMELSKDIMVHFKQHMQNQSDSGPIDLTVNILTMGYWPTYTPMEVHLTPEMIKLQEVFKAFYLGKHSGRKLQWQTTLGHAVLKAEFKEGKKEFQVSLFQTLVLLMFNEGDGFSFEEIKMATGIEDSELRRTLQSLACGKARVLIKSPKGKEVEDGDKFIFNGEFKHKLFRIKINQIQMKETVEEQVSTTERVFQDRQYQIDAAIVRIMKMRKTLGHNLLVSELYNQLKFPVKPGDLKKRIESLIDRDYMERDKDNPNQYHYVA
T3 sequence (Q13620 whole entry): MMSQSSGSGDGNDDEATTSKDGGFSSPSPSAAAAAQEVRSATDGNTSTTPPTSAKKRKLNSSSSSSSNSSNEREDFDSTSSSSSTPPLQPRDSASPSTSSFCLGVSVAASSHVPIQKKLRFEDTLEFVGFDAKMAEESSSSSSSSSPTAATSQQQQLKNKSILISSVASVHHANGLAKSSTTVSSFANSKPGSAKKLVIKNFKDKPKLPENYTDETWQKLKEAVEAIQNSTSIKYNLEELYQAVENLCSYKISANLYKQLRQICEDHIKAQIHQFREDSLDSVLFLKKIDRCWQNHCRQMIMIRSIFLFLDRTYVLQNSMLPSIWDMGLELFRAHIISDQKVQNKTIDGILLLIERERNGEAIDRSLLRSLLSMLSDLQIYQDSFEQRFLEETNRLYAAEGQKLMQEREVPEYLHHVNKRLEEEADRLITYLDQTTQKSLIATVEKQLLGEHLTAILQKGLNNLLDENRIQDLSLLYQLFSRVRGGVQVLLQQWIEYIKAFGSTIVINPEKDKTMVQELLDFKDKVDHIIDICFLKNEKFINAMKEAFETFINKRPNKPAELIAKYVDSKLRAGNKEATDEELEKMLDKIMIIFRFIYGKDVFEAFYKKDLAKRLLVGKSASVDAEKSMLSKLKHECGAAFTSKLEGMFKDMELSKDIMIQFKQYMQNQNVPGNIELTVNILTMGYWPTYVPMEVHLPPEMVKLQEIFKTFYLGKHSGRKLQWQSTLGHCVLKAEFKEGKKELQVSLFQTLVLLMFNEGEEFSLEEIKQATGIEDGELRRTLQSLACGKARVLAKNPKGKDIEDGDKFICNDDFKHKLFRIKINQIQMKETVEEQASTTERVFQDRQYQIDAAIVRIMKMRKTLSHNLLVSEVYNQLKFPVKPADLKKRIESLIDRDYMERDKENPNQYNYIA

B1: RBM39Δ150 P272S (other, human, UniProt Q14498 151-530, looked up)
chain: DARTVFCMQLAARIRPRDLEEFFSTVGKVRDVRMISDRNSRRSKGIAYVEFVDVSSVPLAIGLTGQRVLGVPIIVQASQAEKNRAAAMANNLQKGSAGPMRLYVGSLHFNITEDMLRGIFESFGRIESIQLMMDSETGRSKGYGFITFSDSECAKKALEQLNGFELAGRPMKVGHVTERTDASSASSFLDSDELERTGIDLGTTGRLQLMARLAEGTGLQIPPAAQQALQMSGSLAFGAVAEFSFVIDLQTRLSQQTEASALAAAASVQPLATQCFQLSNMFNPQTEEEVGWDTEIKDDVIEECNKHGGVIHIYVDKNSAQGNVYVKCPSIAAAIAAVNALHGRWFAGKMITAAYVPLPTYHNLFPDSMTATQLLVPSRR
notes: domain: RRM1, RRM2, and RRM3 domains; Sf9 expression as for RBM39Δ150
fold higher indisulam concentration required for recruitment, against wild type RBM39Δ150 (DCAF15-3xFLAG [1]): 100 fold

B2: RBM39Δ150 E271Q (other, human, UniProt Q14498 151-530, looked up)
chain: B1 chain with E121Q, S122P
notes: domain: RRM1, RRM2, and RRM3 domains; Sf9 expression as for RBM39Δ150; also called E271Q variant of RBM39Δ150
binding result (DCAF15-3xFLAG [2]): no binding (tested: 10 µM indisulam)

B3: RBM39 G268V-3xFLAG (other, human, UniProt Q14498 1-530, looked up)
chain: MADDIDIEAMLEAPYKKDENKLSSANGHEERSKKRKKSKSRSRSHERKRSKSKERKRSRDRERKKSKSRERKRSRSKERRRSRSRSRDRRFRGRYRSPYSGPKFNSAIRGKIGLPHSIKLSRRRSRSKSPFRKDKSPVREPIDNLTPEERDARTVFCMQLAARIRPRDLEEFFSTVGKVRDVRMISDRNSRRSKGIAYVEFVDVSSVPLAIGLTGQRVLGVPIIVQASQAEKNRAAAMANNLQKGSAGPMRLYVGSLHFNITEDMLRVIFEPFGRIESIQLMMDSETGRSKGYGFITFSDSECAKKALEQLNGFELAGRPMKVGHVTERTDASSASSFLDSDELERTGIDLGTTGRLQLMARLAEGTGLQIPPAAQQALQMSGSLAFGAVAEFSFVIDLQTRLSQQTEASALAAAASVQPLATQCFQLSNMFNPQTEEEVGWDTEIKDDVIEECNKHGGVIHIYVDKNSAQGNVYVKCPSIAAAIAAVNALHGRWFAGKMITAAYVPLPTYHNLFPDSMTATQLLVPSRR
notes: From HCT-116 cells; for the ubiquitination assay expressed from pCDNA3.1 in 293T cells; also called RBM39-3xFLAG G268V; not shown: C-terminal 3xFLAG tag
binding result (CUL4A): no binding (tested: 10 µM indisulam) | binding result (CUL4B): no binding (tested: 10 µM indisulam) | binding result (DDB1): no binding (tested: 10 µM indisulam)
